# According to IntAct's records for PubMed 16923827:
# B1: Spindle pole body assembly component MPS3 (Saccharomyces cerevisiae), P47069 (parent)
# chain: MNNSNEHRREEAGAANEQMPYNKAVKSAYADVLKDKMNREQEISLRAIKKGIYTDGGETDNYDMDKENDSAYEMFKKNLDFPLDQHNDDDDDDPYIEDNGQETDGYSDEDYTDEADKSFIEDSDSDSYDLESNSDFEENLESSGEAKKLKWRTYIFYGGLFFVFYFFGSFLMTTVKNNDLESHSSGATSSPGKSFSNLQKQVNHLYSELSKRDEKHSSELDKTVKIIVSQFEKNIKRLLPSNLVNFENDINSLTKQVETISTSMSELQRRNHKFTVENVTQWQDQLVKQLDTHLPQEIPVVINNSSSLLIIPELHNYLSALISDVIESPGIGTAGSAESRWEYDLNRYVKEILSNELQYIDKDYFIQEMNRRLQSNKQEIWEEITNRLETQQQQQQQQVQQDYSNVPQQYSSILMKRLIHQIYNSNQHQWEDDLDFATYVQGTKLLNHLTSPTWRQGSGVQPIELLTDSKQSSSTYWQCENEPGCSWAIRFKTPLYLTKISYMHGRFTNNLHIMNSAPRLISLYVKLSQTKEIKALQTLANQYGFGQHHKRDRNYIKIAKFEYRLTDSRIRQQMYLPPWFIQLKPLVRSIVFQVDENYGNKKFISLRKFIINGVTPQDLQIIENNEFPVLLGDTPEYGVTQNTDEGKRKVLLSKPPYASSSTSTKFHPASNVPSFGQDELDQ
# partner: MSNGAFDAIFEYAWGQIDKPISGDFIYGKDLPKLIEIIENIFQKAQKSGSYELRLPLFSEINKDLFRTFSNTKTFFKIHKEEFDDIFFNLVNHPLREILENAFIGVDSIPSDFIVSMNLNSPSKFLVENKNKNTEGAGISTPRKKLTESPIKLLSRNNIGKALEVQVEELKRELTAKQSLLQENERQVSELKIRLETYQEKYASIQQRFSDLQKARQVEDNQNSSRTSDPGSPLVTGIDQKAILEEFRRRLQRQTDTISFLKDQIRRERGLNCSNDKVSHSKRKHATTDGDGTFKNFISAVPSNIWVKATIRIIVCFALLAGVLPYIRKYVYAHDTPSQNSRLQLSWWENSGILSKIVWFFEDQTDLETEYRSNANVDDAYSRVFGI
# Variants of: B1
# Conditions: with mps2_yeast MPS2, P53159
row,effect of a mutation on the interaction,Variant
1,decreasing interaction,Q572L;Q573L
2,decreasing interaction,W487A
3,decreasing interaction,W477A
